{"source": "the DeepSol protein solubility set"}
{"assay": "soluble on expression in E. coli; label from the status in PepcDB or PDB records"}
{"sequence": "MDYLYHPYPSQRMTVFAKNGVVATSQPLAAQAGLDVLKKGGNAIDAAIAAAACLTVVEPTSNGIGGDAFALVWTDGKLYGLNASGYAPKSISIEALKELGYTEMPKYGFAPVTVPGAPAAWAALSKRFGRLPLVETLAPAIAYAENGYPVSPVLGKYWAAAFRTYKEALRGPEFAAWFATFAPGGRAPKIGEVWASPDHAATLRSIAETEAESFYRGELAEKIAAFSKQYGGFLAADDLAEYEPEWVEPISVSYRGYEVWEIPPNGQGIVALMALNIMNGFDVPSVSDVETHHRQIEAMKLAFADGKAYIADRRYMNCSPDELLSESFAAMRRAQIGEEALTPEPGTPPKGGTVYLAAADGEGNMVSFIQSNYMGFGSGLVVPGTGIALHNRGHNFAFDESHPNGLAPRKKPYHTIIPGFLTKGGAPVGPFGVMGGFMQPQGHLQVIMNTVDFDLNPQAALDAPRWQWMEGKTVLVEPHFPRHIAEALARKGHDIRLALDSGLFGRGQIIWRDPDTGVLAAGTEPRTDGAVAAW", "soluble on expression in E. coli": "not soluble"}
{"sequence": "MDYTIIDAHAHLWLRQDTVVDGFPIRTLENGRSLFMGEIRQMVPPFMIDGVNSAEVFLSNMDYAQVSAAVITQEFIDGIQNDYLMEVVSRYPDRFFVCGMCEFRKPGYLEQAKELIGKGFKAIKIPAQRLLLKEGRVMLNCPEMMQMFRWMEERGVILSVDLAEGAIQVLEMEEIIQECPRLKIAVGHFGMVTLPDWKEQIKLARHPNVMIESGGITWLFNDEFYPFKGAIKAIREAAELVGMEKLMWGSDYPRTITAITYKMSYDFVVKSPELSEAEKTLFLGGNARKFYGFAELPELPYIKNMSE", "soluble on expression in E. coli": "not soluble"}
{"sequence": "MEAEVDKLELMFQKAESDLDYIQYRLEYEIKTNHPDSASEKNPVTLLKELSVIKSRYQTLYARFKPVAVEQKESKSRICATVKKTMNMIQKLQKQTDLELSPLTKEEKTAAEQFKFHMPDL", "soluble on expression in E. coli": "not soluble"}
{"sequence": "MEAKEKKYGEIEIEKAQLEAWPNPNPERDYMIEITFPEFTCLCPRSGYPDFATIKIRYIPDKYIVELKSLKLWLNKFRNRYISHEAATNEIYQALYDLLKPRFLEVVGDFHPRGNVHTVVRVRSDENYGAAAAAALEHHHHHH", "soluble on expression in E. coli": "soluble"}
{"sequence": "MEAKKSNKIREIVKLQQLLKKWRKQAIASKAANNNNEDNNSSGGGSKSIKFLKRTLSFTDVTAVPKGYLAVSVGLEKKRYTIPTEYLSHQAFYVLLREAEEEFGFQQAGVLRIPCEVSVFESILKIMEEKNEGYLVTPITAKQECKFNAAADDKTSYQHPSDCPKTPSHQPHNSPMCR", "soluble on expression in E. coli": "soluble"}
{"sequence": "MEALLKEAFLEALKATDPYRLTAKHLPPWRPDLVLAVGKAAAPMLQAALDRYGEVPYHLTLPKGQKAPGLKAVFARHPVPDEESVRAAEEVLGLLQGLSPRARVLALLSGGGSALWCAPLGISLEEKRALTEALLKSGASIHEMNAVRKHLSQIKGGRALLATRAKVHVLLLSDVPGDDPSVIASGPFHPDPTTYAEALALLDRYGLAFPGARAVLRQGVEGRLPETLKPQDPALRRLAWRLVGTNLHLLRAAQRFLRARGFRAAVLSDRFGGEARALARFHAELIEAIRAHGVPFRKPLFLLSGGEAQVRVVGRGRGGRNLEFLLALYAHLKTPLYALAADSDGLDGNSGAAGALLTPAVWEKGLDPRPFLEENDSLGFFQEAGTLLKTGPTGTNLNDFRLLLVD", "soluble on expression in E. coli": "soluble"}
{"sequence": "MEANKYKIGIIGSRDIILPFSMIGFDIFPAYQEQEAINTLRKLAQSDYGVIYITEDIASMILDTIRHYDSQVVPAIILLPTHKQGLNLGLKRIEDNVEKAVGHNILLEHHHHHH", "soluble on expression in E. coli": "not soluble"}
{"sequence": "MEAVQSSGRRMVHAIVWRYFEPRLRGSSVSNPGSNLVRFSEFCRGSMGFHICRLCDQASQWLSLDRSTSQWLSLDRSTVTTAFVWTDAFTTGTAGFNWDNKQPDNKDLNQPCAIVLAAHAPIHFQSYQFQPAMMDDAECAADSVASMGRTISGYVCGKPARQ", "soluble on expression in E. coli": "not soluble"}
{"sequence": "MEDFGRQRPYGDGGMQIQPYHGNQGGDFRSYSASYGTRENNIYDVKKEKSIARSKSWGITDPELQRKKRVASYKMYGVEGKVKGSFRNSFRWLKQRYTQVVYGWW", "soluble on expression in E. coli": "not soluble"}
{"sequence": "MEDIYYSPRYEDDEYEYRHVILPQAVSRKVPKGRLLSEAEWRRAGVQQSLGWEHYMVHNPEKHILLFRRKRHFTKADEERAKMELLRDMEVFNRAQQQTTATDEKLNAVFYEFVNKAV", "soluble on expression in E. coli": "not soluble"}
{"sequence": "MEDKLITLAILTYAKAQILKNVLENEGIEAYIHNVNLIQPVISSGVRLRIKESDLPHALQIIESSAWLSEDIIKGKESSSERNKEKRKVLIPIDFSNYSLKACQFGFSFANAINSEVVLLHAYFSPIYVPTIPYGTDNFNFQIEREESVKSMIETVHNELNKLSDTIKKKVESGEFPNIKYTCILRDGIPEEEILRYAKEYNPQIIIMGTRGRSQKDIDLIGSVTAEVIERSKSFVYAIPEHTPLKTFNDIKKVAFVTNFDQRDLIAFDSLINAFKSFHFAVSFIHLSTDNDAWNEIKLAGIKDYFQKQYSKLELYYNVVKEDNILNNLDNYVKEENIDVICITNYKRNIFARLFNPSIARKMIFHANTPILVIK", "soluble on expression in E. coli": "not soluble"}
{"sequence": "MEDKLVTLAILTYTKAQILKNVLENEGIETYIHNVNQIQPVVSSGVRLRIKESDLPRALKITESSTWLSESIVGEKTPKVDSKSNKILIPVDFSNYSMKACEFGFNLAKTENSEVILLHVYFTPIYASSLPYGDVFNYQIGDEESVKTIIQQVHSDLNALSDKIKEKVASGEFPDIKYSCILREGIPEEEILRYAKEQRPKVIIMGTRGKSQKDIDLIGSVTAEIIDRSRTAVLAIPENTPFKEFNEVKRIAFLTNFDQRDLIAFEAFFNTWKSFHFSVSLIHLAESKDTWNEIKLAGIKDYFQKQYPGLEIHYDVVMNDNLLKGLDKYIKDNQIDIITLTSYKRNIFARLFNPSIARKMIFHSDTPLLVING", "soluble on expression in E. coli": "not soluble"}
{"sequence": "MEDKTLGLLLDVVGELFSDEISIAVSNTKEYIYYRPSKRIDLKISAGDPIKEGTIAHKAMVTNQKTSEFMNRDVFGIPYHGMAVPFSNNGKLEGCVTAIYPALTDGKSVVTLKTTDGWIPVPFSKVMYLEAKDKKTYVNAEELTGTHKYSLQEFEYLLPKDSFIRCHRSFIVNVNHIKAIYPDTHSTFLLSMDNGERVPVSQSYASYFRKLLGF", "soluble on expression in E. coli": "soluble"}
{"sequence": "MEDKVDVLIIGGGASGVTSGIQSARMGANTLILEESTWLGGMLTSAGVSAVDGNYRLPAGLWGEFKNRLSDYYGGLDSLKTGWVSNVLFEPSVGNKILHEMVAAENNLKVWKQACLEEVKRTGDEWVAKVKVEGQGVKTVRAKVMIDATELGDVAKMCGLEHHHHHH", "soluble on expression in E. coli": "not soluble"}
{"sequence": "MEDLRRYICDNTQKNIVMLVGRKVSDISKIARSYGNACMLRSFQGFRIVKSIYYYEDEVKISADGIVLCKDSLDELLRTVEQNNHVEIRNAVATFYDEMSSMGMNGESMNLNINYLLFQFIHLASEQDDNVNQQEILRLISESSFKTGIERGSRAHMTRFCCEYGDYLSQLRKNVSRGVIGMVEKEVRDNYATNITLKSLSEKYYVNSAYLGQLFRKKYGQSFKDYLNNYRMERAAELLLRTDKKIIQIAEEVGYHDMDYFVNRFIQVKGCTPARFRRQMQSGE", "soluble on expression in E. coli": "not soluble"}
{"sequence": "MEEEEYEQIPQENPPEELSQDPVLELSGGLREKEQKTPRRLRLILMGKTGSGKSATGNSILGRDVFESKLSTRPVTKTSQRRSREWAGKELEVIDTPNILSPQVSPEVADAICQAIVLSAPGPHAVLLVTQLGRFTDEDQQVVRRLQEVFGVGVLGHTILVFTRKEDLAGGSLEDYVRETNNQALAWLDVTLARRHCGFNNRAQGEEQEAQLRELMEKVEAIMWENEGDYYSNKAYQYTQQNFRLKELQERQVSQGQGSEDVPGEESWLEGLSQIQKESEEAHRCLLGKADL", "soluble on expression in E. coli": "soluble"}
{"sequence": "MEEIPEHEGYKFRVARPRTDFRGTHQYASPNAHMLIELGRHDDIWSLMYMVAESFVELPWTRCEETEVEHYMNQSTILRLFSDEKNPTRLNADMRRQLDEIDSMLKASKYYDSPNYDAVYQFFKDSMAKAKVTWDTPFDWEIGNTLSEETSKGVKRKMGGPWENPGLFFTVLQ", "soluble on expression in E. coli": "not soluble"}
{"sequence": "MEEKKPVNLVLPEVENAIFIEGYPGVGLVGHIAANFLAKELDMDLIGYVDSLFIPPMSLILEGRPTPPLRFYGKNNIIIAIADIFLPPTLVNEIAKEIVNYLKKVNAEKVISLAGMGIGFFKDTFEVWGIGGSEEENKELESLGVKILKYGSITGMSGKLLWEASRAGLKSYVLLGETFGDRPDPRAAANVVEVLNKMLGLNVSVEPLLKEAEMIEEQLRRMHEQMEEARRKMERQYETMYL", "soluble on expression in E. coli": "not soluble"}
{"sequence": "MEENGMKSKILIFGGTGYIGNHMVKGSLKLGHPTYVFTRPNSSKTTLLDEFQSLGAIIVKGELDEHEKLVELMKKVDVVISALAFPQILDQFKILEAIKVAGNIKRFLPSDFGVEEDRINALPPFEALIERKRMIRRAIEEANIPYTYVSANCFASYFINYLLRPYDPKDEITVYGTGEAKFAMNYEQDIGLYTIKVATDPRALNRVVIYRPSTNIITQLELISRWEKKIGKKFKKIHVPEEEIVALTKELPEPENIPIAILHCLFIDGATMSYDFKENDVEASTLYPELKFTTIDELLDIFVHDPPPPASAAF", "soluble on expression in E. coli": "soluble"}
{"sequence": "MEEVEEFKYEPKSVKEIFIEMKDTVELMVDLAYASLLFGDKEIAEEVLELEERIDLLNYQLMMHSVLAARNVKEAEQVITILQIANAIEDISNAAGDLAKMVLEGVELHPVIKETILEGEEIIGKIQVYPESVIVGKTLGELDLATNTGVWIIAVRRGKRWIFGPNENFKIRAGDVLIGRGTRTSIDHLKEIARGAIRVIGNERA", "soluble on expression in E. coli": "soluble"}
{"sequence": "MEEWDVPQMKKEVESLKYQLAFKREMSSKTIPELLKWIEDGIPKDPFLNPDLMKNNPWVEKAKCTIL", "soluble on expression in E. coli": "not soluble"}
{"sequence": "MEFKLLQTFIEVVRQGSFSKAAENLFTTQSTVSKAIKQLEEELGITLIERFKKRNVPTTAGEIVYQRGTKLLADRDDLLKELDEIRGLKQGRLRLGISPVGSSTLFAPLFVLYRQRYPGIEVELVEHGSDKLAECLRAGEIDFAGTLLPISEEFDCQLVRSEPLVALLASGHPLATKHCISLPELKEIPFILFGSGFALHRIILDACRHAGFEPKVVAQSSQIDFMLELVAAGLGVTFLPRMIATQRHTTQIRSLLLNGSEFQWNMAMTWRRNSYLSEAAQAWLALVREVHVDN", "soluble on expression in E. coli": "not soluble"}
{"sequence": "MEFMKLAIEEAKKGMEKGDGGPFGAVIVKDGKVIGSGHNMVLVTKDPTAHAEVTAIRNTCKNVDNFDLSGCQLYTSCYPCPMCMGAALWSRVDAIYYGATSQDAANIGFGDHEFHEFLQNPKSDDKRKLEQFKVDNYLEPFQLWSKKDNKELY", "soluble on expression in E. coli": "not soluble"}
{"sequence": "MEGDTISRMMGSGVQMDGKILQTFEKSFVQVQNILDHNRLLINEINQNHESKIPDNLGRNVGLIRELNNNVRRVAHLYVDLSNNFSKSMEASSEGDSSEGRGNRRIRPA", "soluble on expression in E. coli": "soluble"}
{"sequence": "MEGFPVRVRVDVRFRDLDPLGHVNNAVFLSYMELARIRYFQRISPDWLEEGHFVVARMEVDYLRPILLGDEVFVGVRTVGLGRSSLRMEHLVTANGESAAKGLGVLVWLEGGRPAPLPEAIRERIRALEGRPL", "soluble on expression in E. coli": "soluble"}
{"sequence": "MEGIIDKENERVRRFFALLDDMEKKVERLARDNRPPFNGERFLTDRELSGMLKISRRCLQDYRDQGRIPYIQLGGKILYRQSDIERLLEENYHPALV", "soluble on expression in E. coli": "not soluble"}
{"sequence": "MEGNGSVDMFSEVLENQFLQAAKLVENHLDSEIQKLDQIGEDELELLKEKRLAALRKAQQQKQEWLSKGHGEYREIGSERDFFQEVKESEKVVCHFYRDTTFRCKILDRHLAILAKKHLETKFLKLNVEKAPFLCERLRIKVIPTLALLRDGKTQDYVVGFTDLGNTDDFTTETLEWRLGCSDVINYSGNLMEPPFQSQKKFGTNFTKLEKKTIRGKKYDSDSDDD", "soluble on expression in E. coli": "soluble"}
{"sequence": "MEGYPKIQYHGFIGNNRTAMLVAMNGYIDWGCLPNFNSNAVFSSILDKNKGGYFAIFPSDTTDVYVDQYYKEMTNVLVTEFVKNGKIILRLTDFMPDSEYGKISFPEVHRFVESFSEPIDITIDFKPTFNYLEHHHHHH", "soluble on expression in E. coli": "not soluble"}
